Results taken from paper PMC4621360 (eLife, 2015).

Molecular target: T1, FG-N, MGT-Nsp1(48–172)-… (S. cerevisiae)
T1 construct: added N-terminal residues; Nsp1, FG nucleoporin, N-terminal Asn-rich segment of low charge with irregularly spaced FG repeats, residues 48-172; Isotope-labelled for NMR; source: E. coli BL21DE3 Gold, purified (8 M urea throughout, Talon resin); also observed inside living E. coli
Test: NMR titration; HSQC test of reversibility in buffer A; FG-N 50 μM, Kap95 added to 25 μM, then diluted with more FG-N
Settings: both partners purified

binding result: binds
B1: Kap95 (natural protein, S. cerevisiae)
chain: MSTAEFAQLLENSILSPDQNIRLTSETQLKKLSNDNFLQFAGLSSQVLIDENTKLEGRILAALTLKNELVSKDSVKTQQFAQRWITQVSPEAKNQIKTNALTALVSIEPRIANAAAQLIAAIADIELPHGAWPELMKIMVDNTGAEQPENVKRASLLALGYMCESADPQSQALVSSSNNILIAIVQGAQSTETSKAVRLAALNALADSLIFIKNNMEREGERNYLMQVVCEATQAEDIEVQAAAFGCLCKIMSLYYTFMKPYMEQALYALTIATMKSPNDKVASMTVEFWSTICEEEIDIAYELAQFPQSPLQSYNFALSSIKDVVPNLLNLLTRQNEDPEDDDWNVSMSAGACLQLFAQNCGNHILEPVLEFVEQNITADNWRNREAAVMAFGSIMDGPDKVQRTYYVHQALPSILNLMNDQSLQVKETTAWCIGRIADSVAESIDPQQHLPGVVQACLIGLQDHPKVATNCSWTIINLVEQLAEATPSPIYNFYPALVDGLIGAANRIDNEFNARASAFSALTTMVEYATDTVAETSASISTFVMDKLGQTMSVDENQLTLEDAQSLQELQSNILTVLAAVIRKSPSSVEPVADMLMGLFFRLLEKKDSAFIEDDVFYAISALAASLGKGFEKYLETFSPYLLKALNQVDSPVSITAVGFIADISNSLEEDFRRYSDAMMNVLAQMISNPNARRELKPAVLSVFGDIASNIGADFIPYLNDIMALCVAAQNTKPENGTLEALDYQIKVLEAVLDAYVGIVAGLHDKPEALFPYVGTIFQFIAQVAEDPQLYSEDATSRAAVGLIGDIAAMFPDGSIKQFYGQDWVIDYIKRTRSGQLFSQATKDTARWAREQQKRQLSL
notes: Kap95, nuclear transport factor; also called TF; transport factor; source: prepared as previously described (Tetenbaum-Novatt et al., 2012)
